Paper PMC11669160, “Engineering an αCD206-synNotch Receptor: Insights into the Development of Novel Synthetic Receptors” (ACS Synthetic Biology, 2024)

Target: T1, mouse CD206 extracellular domain fused to a myc tag and the PDGFRβ transmembrane domain, displayed on MetBo2 … (Mus musculus (cDNA of IL-4 treated …))
T1 construct: transmembrane domain of the human platelet-derived growth factor receptor (PDGFRβ); the methods name only myc; also called CD206 ECD; CD206 ECD construct; source: MetBo2 cells, transiently transfected (CMV promoter), on cells
T1 chain: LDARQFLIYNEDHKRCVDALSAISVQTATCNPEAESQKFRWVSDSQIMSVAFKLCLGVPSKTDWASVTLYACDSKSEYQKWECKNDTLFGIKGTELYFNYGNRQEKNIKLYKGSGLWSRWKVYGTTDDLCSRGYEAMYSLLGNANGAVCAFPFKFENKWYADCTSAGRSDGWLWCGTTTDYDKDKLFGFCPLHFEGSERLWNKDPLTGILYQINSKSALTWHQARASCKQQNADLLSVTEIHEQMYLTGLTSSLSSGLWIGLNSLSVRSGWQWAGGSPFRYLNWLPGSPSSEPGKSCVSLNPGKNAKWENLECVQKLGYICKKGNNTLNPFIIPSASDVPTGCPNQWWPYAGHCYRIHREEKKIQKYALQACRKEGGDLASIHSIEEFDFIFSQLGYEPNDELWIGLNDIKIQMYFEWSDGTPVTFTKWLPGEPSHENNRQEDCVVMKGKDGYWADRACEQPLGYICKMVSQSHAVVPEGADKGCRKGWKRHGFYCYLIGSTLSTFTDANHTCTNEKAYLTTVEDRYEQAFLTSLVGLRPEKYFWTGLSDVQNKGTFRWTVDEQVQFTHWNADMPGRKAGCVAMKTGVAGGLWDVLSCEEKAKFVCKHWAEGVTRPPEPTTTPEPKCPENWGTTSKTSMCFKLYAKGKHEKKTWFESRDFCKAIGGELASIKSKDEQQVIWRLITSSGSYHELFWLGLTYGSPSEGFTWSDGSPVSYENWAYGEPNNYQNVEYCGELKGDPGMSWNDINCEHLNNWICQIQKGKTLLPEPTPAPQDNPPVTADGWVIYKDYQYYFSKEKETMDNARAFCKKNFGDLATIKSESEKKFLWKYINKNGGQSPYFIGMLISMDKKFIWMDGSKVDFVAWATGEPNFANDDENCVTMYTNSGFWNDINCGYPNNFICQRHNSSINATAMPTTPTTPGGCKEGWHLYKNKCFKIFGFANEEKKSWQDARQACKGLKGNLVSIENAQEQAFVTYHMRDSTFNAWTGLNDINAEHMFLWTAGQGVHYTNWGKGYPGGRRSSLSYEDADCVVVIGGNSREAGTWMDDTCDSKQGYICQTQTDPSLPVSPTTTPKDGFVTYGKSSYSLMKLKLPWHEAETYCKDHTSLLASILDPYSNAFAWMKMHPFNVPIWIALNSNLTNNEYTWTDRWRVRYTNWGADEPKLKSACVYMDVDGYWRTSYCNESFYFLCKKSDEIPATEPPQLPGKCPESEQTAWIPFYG
Assay: immunostaining of cells or tissue; supernatant of HEK293FT cells with αCD206-mNeonGreen chromobody put on MetBo2 cells transiently expressing the CD206 ECD construct; 4 °C overnight in the dark; fluorescence microscopy (methods: fixed cells; legend: live cells)
Conditions: partners not purified

binding result: binds
B1: αCD206-mNeonGreen chromobody (αCD206 VHH fused to mNeonGreen) (VHH)
VHH: QVQLQESGGGLVQPGGSLRLSCAASGNIFSINAIGWYRQAPGKQRELVATITLSGSTNYADSVKGRFSISRDNAKNTVYLQMNSLKPEDTAVYYCNANTYSDSDVYGYWGQGTQVTVSS
notes: also called αCD206 chromobodies; αCD206 nanobody; source: HEK293FT, transiently transfected; cell-free culture supernatant used unpurified
